The values below come from patent US20220054955A1.

The target of this assay is GST. As to the kind of experiment: photo-crosslinking of 7 mg/ml GST with 1 mM aziethyl glutathione (337 nm, 30 minutes), whole-protein LCMS.

In turn, aziethyl glutathione yielded a percent of GST molecules covalently crosslinked of 40%.
